# Experimental data as given in patent US20030119023, “Nucleic acid binding polypeptides characterized by flexible linkers connected nucleic acid binding modules” (published 2003).
# Experiments:
# [1] = molecular target: Zif268 (wild-type ZIF, three-finger) (UniProt P08046 P08046:333-421); experiment: EMSA; Bis-tris propane pH 7.0, 100 mM NaCl, 5 mM MgCl2, 50 uM ZnCl2, room temperature
# 3x2F ZGS [2] = molecular target: 3x2F ZGS (artificial); experiment: EMSA; apparent Kd; conditions: label: 32P
# Procedure: (§1) DNA binding reactions contain the appropriate zinc-finger peptide, binding site and 1 μg competitor DNA (poly dI-dC) in a total volume of 10 μl, which contains: 20 mM Bis-tris propane (pH 7.0), 100 mM NaCl, 5 mM MgCl₂, 50 μM ZnCl₂, 5 mM DTT, 0.1 mg/ml BSA, 0.1% Nonidet P40. Incubations are performed at room temperature for 1 hour.
# (§2) Dissociation constants are determined in parallel to the calculation of active peptide concentration. Serial 3, 4 or 5-fold dilutions of crude peptide are made and incubated with radiolabelled binding site (0.1 pM-500 pM depending on the peptide), as above. Samples are run on 7% native polyacrylamide gels and the radioactive signals quantitated by PhosphorImager analysis. The data is then analysed according to linear transformation of the binding equation and plotted in CA-Cricket Graph III (Computer Associates Inc. NY) to generate the apparent dissociation constants. The Kd values reported are the average of at least two separate studies.
# 2x3F ZIF-GAC = 2x3F ZIF-GAC (artificial); experiment: EMSA; apparent Kd; conditions: label: 32P
# Procedure: as §1, §2
# 3x2F ZGS [3] = molecular target: 3x2F ZGS (artificial); experiment: EMSA; apparent Kd; conditions: label: 32P; remark: listed apart in the source
# Procedure: as §1, §2
# (§3) First the 3x2F ZGS and ZGL peptides are titrated against 12/34/56 (three 6 bp subsites separated by 1 bp, which is represented by a single ‘/’ in the binding site name) and 12//34//56 (three 6 bp subsites separated by 2 bps) binding sites. […] Next, the 3x2F ZGSL and 3x2F ZGLS peptides are targeted against the three non-contiguous sequences: 1234/56, 12/3456 and 12//34//56. […] 3x2F ZGLS show a similar trend in binding affinities.
# 3x2F ZGLS = 3x2F ZGLS (artificial); experiment: EMSA; apparent Kd; conditions: label: 32P
# Procedure: as §1, §2, §3
# 3x2F ZGSL = 3x2F ZGSL (artificial); experiment: EMSA; apparent Kd; conditions: label: 32P
# Procedure: as §1, §2, §3
# 3x2F ZGL = 3x2F ZGL (artificial); experiment: EMSA; apparent Kd; conditions: label: 32P
# Procedure: as §1, §2, §3
# [4] = molecular target: TF(1-4)-ZIF (TFIIIA F1-4 fused to Zif268) (artificial); experiment: EMSA; apparent Kd; table prints gap as X5; conditions: label: 32P
# Procedure: as §1, §2
# [5] = molecular target: TF(1-4)-ZIF (TFIIIA F1-4 fused to Zif268) (artificial); experiment: EMSA; apparent Kd; table prints gap as X6; conditions: label: 32P
# Procedure: as §1, §2
# (§4) The TF(1-4)-ZIF and TF(1-3)-flex-ZIF peptides are tested against the non-contiguous TF-5,6,7,8,9-Z sites. In these first experiments the DNA composition of the non-bound region is based on the endogenous TFIIIA target site. […] The target sites with 5, 6 or 9 bp gaps are bound at least 5-fold weaker (FIG. 27A). […]
# [6] = molecular target: TF(1-4)-ZIF (TFIIIA F1-4 fused to Zif268) (artificial); experiment: EMSA; apparent Kd; table prints gap as X7; conditions: label: 32P
# Procedure: as §1, §2, §4
# [7] = molecular target: TF(1-4)-ZIF (TFIIIA F1-4 fused to Zif268) (artificial); experiment: EMSA; apparent Kd; table prints gap as X8; conditions: label: 32P
# Procedure: as §1, §2, §4
# [8] = molecular target: TF(1-4)-ZIF (TFIIIA F1-4 fused to Zif268) (artificial); experiment: EMSA; apparent Kd; table prints gap as X9; conditions: label: 32P
# Procedure: as §1, §2, §4
# 3x2F ZGXL = 3x2F ZGXL (artificial); experiment: EMSA; conditions: label: 32P
# Procedure: as §1
# 3x2F ZGXL binds the non-contiguous site bsD approximately as tightly as the 3x2F ZGS peptide binds the contiguous 18 bp site, bsC. However, the 3x2F ZGXL peptide binds bsE (containing 2 base pair gaps between target subsites) approximately 500-fold less tightly than it does bsC and bsD, as shown in FIG. 11. This is presumably because it can only bind bsE through 2 fingers.
# [9] = molecular target: ZIF-ZnF-GAC (serine-finger linker) (artificial); experiment: EMSA; apparent Kd; conditions: label: 32P
# Procedure: as §1, §2
# A further set of binding studies is then carried out on the construct containing the non-specific zinc finger linker, ZIF-ZnF-GAC. Although this construct is expected to target (primarily) non-contiguous sequences containing three or four base pairs of non-bound DNA, it is tested against all of the binding sites from ZM to Z10M. […]
# GAC-F4-ZIF [10] = molecular target: GAC-F4-ZIF (artificial); experiment: EMSA; optimal 8 bp gap; conditions: label: 32P
# Procedure: as §1
# (§5) To determine whether TFIIIA F4 would still function as a linker when taken out of the context of neighbouring TFIIIA fingers, the GAC-F4-ZIF construct is made (FIGS. 14 and 16). This construct can be thought of simply as two ZIF-based DNA binding domains joined by a structured linker (in this case TFIIIA F4). […] In this case, however, the optimal DNA span is found to be 8 or 9 bps, although 7-11 bp stretches could be spanned without a significant loss in binding affinity.
# GAC-F4-ZIF [11] = molecular target: GAC-F4-ZIF (artificial); experiment: EMSA; optimal 9 bp gap; conditions: label: 32P
# Procedure: as §1, §5
# GAC-F4-ZIF [12] = molecular target: GAC-F4-ZIF (artificial); experiment: EMSA; 7 bp gap spanned without significant loss; conditions: label: 32P
# GAC-F4-ZIF [13] = molecular target: GAC-F4-ZIF (artificial); experiment: EMSA; 10 bp gap spanned without significant loss; conditions: label: 32P
# GAC-F4-ZIF [14] = molecular target: GAC-F4-ZIF (artificial); experiment: EMSA; 11 bp gap spanned without significant loss; conditions: label: 32P
# [15] = molecular target: ZIF-ZnF-GAC (serine-finger linker) (artificial); experiment: EMSA; conditions: label: 32P
# Procedure: as §1
# For this purpose a ‘neutral’ finger is created by replacing the DNA binding residues (those at positions −1, 2, 3, and 6) of wild type ZIF268 finger 2, with serine residues. Serine can act as either an H-bond acceptor or donator, and can therefore interact with all four bases in DNA. This new finger, denoted “ZnF” and flanked by two GERP linkers, is used to join the three-finger peptides of ZIF and the GAC-clone, creating the seven-finger array ZIF-ZnF-GAC (FIG. 17). This peptide is targeted against non-contiguous sites comprising the 9 bp ZIF and GAC-clone recognition sequences separated by 2, 3, 4 or 5 bps of DNA, and also sites bsA and bsC for comparison (FIG. 21).
# [16] = molecular target: TF(1-4)-ZIF (TFIIIA F1-4 fused to Zif268) (artificial); experiment: EMSA; no preference for gap composition (data not shown); conditions: label: 32P
# Chain of GAC-F4-ZIF (artificial) (chain, as listed by the source): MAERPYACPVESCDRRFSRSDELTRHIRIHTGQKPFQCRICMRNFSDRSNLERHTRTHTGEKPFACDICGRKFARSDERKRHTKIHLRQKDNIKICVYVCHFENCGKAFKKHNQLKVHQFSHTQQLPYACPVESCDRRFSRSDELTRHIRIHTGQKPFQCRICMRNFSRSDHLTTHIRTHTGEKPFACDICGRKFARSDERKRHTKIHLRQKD
# Chain of 3x2F ZGS (artificial) (chain, as listed by the source): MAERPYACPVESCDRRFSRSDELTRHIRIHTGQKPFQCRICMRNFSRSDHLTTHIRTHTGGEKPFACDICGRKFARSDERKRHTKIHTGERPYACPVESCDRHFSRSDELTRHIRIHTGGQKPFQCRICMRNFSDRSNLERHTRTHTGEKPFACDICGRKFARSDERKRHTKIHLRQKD
# Chain of 2x3F ZIF-GAC (artificial) (chain, as listed by the source): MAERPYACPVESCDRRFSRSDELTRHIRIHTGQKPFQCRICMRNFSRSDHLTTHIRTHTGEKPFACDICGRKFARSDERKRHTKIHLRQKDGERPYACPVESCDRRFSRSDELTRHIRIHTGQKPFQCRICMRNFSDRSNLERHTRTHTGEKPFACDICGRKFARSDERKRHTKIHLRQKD
# Chain of 3x2F ZGLS (artificial) (chain, as listed by the source): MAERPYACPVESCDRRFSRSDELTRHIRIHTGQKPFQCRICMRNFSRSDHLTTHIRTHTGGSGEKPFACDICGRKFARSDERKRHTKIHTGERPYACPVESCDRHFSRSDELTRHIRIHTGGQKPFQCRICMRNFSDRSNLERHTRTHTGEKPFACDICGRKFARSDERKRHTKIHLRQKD
# Chain of TF(1-4)-ZIF (TFIIIA F1-4 fused to Zif268) (artificial) (chain, as listed by the source): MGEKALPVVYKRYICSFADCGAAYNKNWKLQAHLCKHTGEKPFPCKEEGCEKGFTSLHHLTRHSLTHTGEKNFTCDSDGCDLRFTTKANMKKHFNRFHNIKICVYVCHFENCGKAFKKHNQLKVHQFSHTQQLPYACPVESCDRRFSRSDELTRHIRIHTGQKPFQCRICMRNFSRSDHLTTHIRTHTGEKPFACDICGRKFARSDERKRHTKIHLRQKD
# Chain of ZIF-ZnF-GAC (serine-finger linker) (artificial) (chain, as listed by the source): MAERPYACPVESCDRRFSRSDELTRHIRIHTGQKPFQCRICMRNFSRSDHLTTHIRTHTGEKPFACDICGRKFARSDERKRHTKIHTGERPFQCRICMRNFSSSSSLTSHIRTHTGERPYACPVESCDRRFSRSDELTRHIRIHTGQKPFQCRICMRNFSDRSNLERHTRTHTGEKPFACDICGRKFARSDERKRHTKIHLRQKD
# Chain of 3x2F ZGSL (artificial) (chain, as listed by the source): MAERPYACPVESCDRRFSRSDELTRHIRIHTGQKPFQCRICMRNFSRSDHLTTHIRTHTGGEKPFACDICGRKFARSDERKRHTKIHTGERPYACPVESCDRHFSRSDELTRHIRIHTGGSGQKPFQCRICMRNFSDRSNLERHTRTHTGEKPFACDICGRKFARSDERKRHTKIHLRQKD
# Chain of 3x2F ZGL (artificial) (chain, as listed by the source): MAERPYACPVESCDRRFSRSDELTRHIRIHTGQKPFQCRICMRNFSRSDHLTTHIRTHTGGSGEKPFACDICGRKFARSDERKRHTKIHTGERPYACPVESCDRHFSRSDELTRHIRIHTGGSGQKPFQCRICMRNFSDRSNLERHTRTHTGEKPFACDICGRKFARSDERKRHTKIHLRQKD
# Chain of 3x2F ZGXL (artificial) (chain, as listed by the source): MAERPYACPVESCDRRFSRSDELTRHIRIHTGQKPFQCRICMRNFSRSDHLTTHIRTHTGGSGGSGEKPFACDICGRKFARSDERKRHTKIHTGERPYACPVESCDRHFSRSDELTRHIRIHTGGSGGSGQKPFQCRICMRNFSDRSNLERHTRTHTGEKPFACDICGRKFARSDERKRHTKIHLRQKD
binder,measurement,setting,value
bsA (ZIF site) (dsDNA) DNA 1: GCGTGGGCG DNA 2: CGCCCACGC,Kd,[1],0.45 nM
bs3 (123//56) (dsDNA) DNA 1: GCGGACTCGCGTGGGCG DNA 2: CGCCCACGCGAGTCCGC,Kd,3x2F ZGS [2],0.27 nM
same,Kd,2x3F ZIF-GAC,0.014 nM
bs2 (123/56) (dsDNA) DNA 1: GCGGACTGCGTGGGCG DNA 2: CGCCCACGCAGTCCGC,Kd,3x2F ZGS [2],0.63 nM
same,Kd,2x3F ZIF-GAC,0.014 nM
bs1 (12356) (dsDNA) DNA 1: GCGGACGCGTGGGCG DNA 2: CGCCCACGCGTCCGC,Kd,3x2F ZGS [2],22 nM
same,Kd,2x3F ZIF-GAC,0.36 nM
bsD (12/34/56) (dsDNA) DNA 1: GCGGACTGCGGCGTTGGGCG DNA 2: CGCCCAACGCCGCAGTCCGC,Kd,3x2F ZGS [3],18 nM
same,Kd,3x2F ZGLS,0.12 nM
same,Kd,3x2F ZGSL,0.11 nM
same,Kd,3x2F ZGL,0.005 nM
bsF (1234/56 in Table 5) (dsDNA) DNA 1: GCGGACTGCGGCGTGGGCG DNA 2: CGCCCACGCCGCAGTCCGC,Kd,3x2F ZGS [3],0.054 nM
same,Kd,3x2F ZGLS,0.089 nM
same,Kd,3x2F ZGSL,0.003 nM
bsG (12/3456 in Table 5) (dsDNA) DNA 1: GCGGACGCGGCGTTGGGCG DNA 2: CGCCCAACGCCGCGTCCGC,Kd,3x2F ZGS [3],0.077 nM
same,Kd,3x2F ZGLS,0.005 nM
same,Kd,3x2F ZGSL,0.073 nM
bsE (12//34//56) (dsDNA) DNA 1: GCGGAGTCGCGGCGTCTGGGCG DNA 2: CGCCCAGACGCCGCGACTCCGC,Kd,3x2F ZGLS,12 nM
same,Kd,3x2F ZGSL,12 nM
same,Kd,3x2F ZGL,11 nM
TF5Z (bsA1) (dsDNA) DNA 1: GCGTGGGCGTACCTGGATGGGAGAC DNA 2: GTCTCCCATCCAGGTACGCCCACGC,Kd,[4],0.021 nM
TF6Z (bsB1) (dsDNA) DNA 1: GCGTGGGCGGTACCTGGATGGGAGAC DNA 2: GTCTCCCATCCAGGTACCGCCCACGC,Kd,[5],0.017 nM
bs4 (123///56) (dsDNA) DNA 1: GCGGACATCGCGTGGGCG DNA 2: CGCCCACGCGATGTCCGC,Kd,3x2F ZGS [2],0.89 nM
same,Kd,2x3F ZIF-GAC,0.015 nM
TF7Z (bsC1) (dsDNA) DNA 1: GCGTGGGCGAGTACCTGGATGGGAGAC DNA 2: GTCTCCCATCCAGGTACTCGCCCACGC,Kd,[6],0.003 nM
TF8Z (bsD1) (dsDNA) DNA 1: GCGTGGGCGTAGTACCTGGATGGGAGAC DNA 2: GTCTCCCATCCAGGTACTACGCCCACGC,Kd,[7],0.003 nM
TF9Z (bsE1) (dsDNA) DNA 1: GCGTGGGCGTTAGTACCTGGATGGGAGAC DNA 2: GTCTCCCATCCAGGTACTAACGCCCACGC,Kd,[8],0.015 nM
"bsC (123456, ZM) (dsDNA) DNA 1: GCGGACGCGGCGTGGGCG DNA 2: CGCCCACGCCGCGTCCGC",Kd,2x3F ZIF-GAC,0.0014 nM
same,binding result,3x2F ZGXL,binds
same,Kd,[9],0.007 nM
bsC2 (dsDNA) DNA 1: GCGTGGGCGAGTACCTGGCGGACGCG DNA 2: CGCGTCCGCCAGGTACTCGCCCACGC,binding signal,GAC-F4-ZIF [10],≥ 125 fold stronger than bsA
bsD2 (dsDNA) DNA 1: GCGTGGGCGTAGTACCTGGCGGACGCG DNA 2: CGCGTCCGCCAGGTACTACGCCCACGC,binding signal,GAC-F4-ZIF [11],≥ 125 fold stronger than bsA
bsB2 (dsDNA) DNA 1: GCGTGGGCGGTACCTGGCGGACGCG DNA 2: CGCGTCCGCCAGGTACCGCCCACGC,binding result,GAC-F4-ZIF [12],binds
bsE2 (dsDNA) DNA 1: GCGTGGGCGTTAGTACCTGGCGGACGCG DNA 2: CGCGTCCGCCAGGTACTAACGCCCACGC,binding result,GAC-F4-ZIF [13],binds
bsF2 (dsDNA) DNA 1: GCGTGGGCGGTTAGTACCTGGCGGACGCG DNA 2: CGCGTCCGCCAGGTACTAACCGCCCACGC,binding result,GAC-F4-ZIF [14],binds
Z2G (dsDNA) DNA 1: GCGGACGCGGTGCGTGGGCG DNA 2: CGCCCACGCACCGCGTCCGC,binding signal,[15],≥ 500 fold stronger than bsA
Z3G (dsDNA) DNA 1: GCGGACGCGAGTGCGTGGGCG DNA 2: CGCCCACGCACTCGCGTCCGC,binding signal,[15],≥ 500 fold stronger than bsA
Z4G (dsDNA) DNA 1: GCGGACGCGTAGTGCGTGGGCG DNA 2: CGCCCACGCACTACGCGTCCGC,binding signal,[15],≥ 500 fold stronger than bsA
Z5G (dsDNA) DNA 1: GCGGACGCGCTAGTGCGTGGGCG DNA 2: CGCCCACGCACTAGCGCGTCCGC,binding signal,[15],≥ 500 fold stronger than bsA
bsG1 (dsDNA) DNA 1: GCGTGGGCGCTTGACGGATGGGAGAC DNA 2: GTCTCCCATCCGTCAAGCGCCCACGC,binding result,[16],binds
bsH1 (dsDNA) DNA 1: GCGTGGGCGAAAAAAGGATGGGAGAC DNA 2: GTCTCCCATCCTTTTTTCGCCCACGC,binding result,[16],binds
